From patent publication US20200384061A1 (JCR PHARMACEUTICALS, published 2020)
Where two headings read alike, the source gives them in different places.

What was measured:
[1] = molecular target: T1, recombinant human TfR (r human TfR, Sino Biological Inc.), extracellular region of hTfR with N-terminal … (human, UniProt P02786 89-760); experiment: BLI (OctetRED96); fusion protein captured via biotin-labeled anti-human BDNF antibody on SA biosensor, TfR in solution
T1 construct: also called r human TfR-ECD (Histag); recombinant hTfR; not shown: histidine tag added to the N-terminus
Description: (§1) Affinities of the hBDNF-anti-hTfR antibody (3N) 1 prepared in Example 22, to human TfR and to monkey TfR were measured. The measurement was generally performed by the following method. The biotin-labeled rabbit anti-human BDNF polyclonal antibodies (anti-human BDNF antibodies: PeproTech Corporation) was diluted with HBS-P+(1% BSA) (10 mM HEPES containing 150 mM NaCl, 50 μM EDTA, 0.05% Surfactant P20, and 1% BSA) to prepare the 15 μg/mL of solution, and the solution was designated as ligand solution 1. The purified product of an anti-hTfR antibody fusion BDNF (hBDNF-anti-hTfR antibody (3N) 1) was diluted with HBS-P+(1% BSA), and the solution was designated as ligand solution 2. And, as the reference control sample, the purified product of the hBDNF-anti-hTfR antibody (3) 1 obtained in Example 15-3 was also diluted with HBS-P+(1% BSA) to prepare ligand solution 3. r human TfR and r monkey TfR were respectively two fold serial diluted with HBS-P+(1% BSA) to prepare seven different concentrations of 0.78125 to 50 nM ([…] to 3.74 μg/mL). These TfR solution were used as TfR sample solutions.
(§2) The OctetRED96 was run under the condition shown in the following Table 15-3 to immobilize the anti-human BDNF antibody onto the sensor. Subsequently, after the OctetRED96 was run under the condition shown in the following Table 15-4 to obtain data, binding interaction curve was fitted to a 1:1 binding model or to a 2:1 binding model using the analysis software attached to the OctetRED96, the association rate constant (kon) and the dissociation rate constant (koff) of the anti-hTfR antibody fusion BDNF to r human TfR, and to r monkey TfR were measured, and the dissociation constant (KD) were calculated. The measurement was performed at 25° C. to 30° C.

[2] = molecular target: T2, recombinant monkey TfR (r monkey TfR, Sino Biological Inc.), extracellular region of cynomolgus monkey TfR … (cynomolgus monkey (Macaca fascicularis), UniProt Q5RDH6 89-760 (Pongo abelii entry)); experiment: as above
T2 construct: not shown: histidine tag added to the N-terminus
T2 chain: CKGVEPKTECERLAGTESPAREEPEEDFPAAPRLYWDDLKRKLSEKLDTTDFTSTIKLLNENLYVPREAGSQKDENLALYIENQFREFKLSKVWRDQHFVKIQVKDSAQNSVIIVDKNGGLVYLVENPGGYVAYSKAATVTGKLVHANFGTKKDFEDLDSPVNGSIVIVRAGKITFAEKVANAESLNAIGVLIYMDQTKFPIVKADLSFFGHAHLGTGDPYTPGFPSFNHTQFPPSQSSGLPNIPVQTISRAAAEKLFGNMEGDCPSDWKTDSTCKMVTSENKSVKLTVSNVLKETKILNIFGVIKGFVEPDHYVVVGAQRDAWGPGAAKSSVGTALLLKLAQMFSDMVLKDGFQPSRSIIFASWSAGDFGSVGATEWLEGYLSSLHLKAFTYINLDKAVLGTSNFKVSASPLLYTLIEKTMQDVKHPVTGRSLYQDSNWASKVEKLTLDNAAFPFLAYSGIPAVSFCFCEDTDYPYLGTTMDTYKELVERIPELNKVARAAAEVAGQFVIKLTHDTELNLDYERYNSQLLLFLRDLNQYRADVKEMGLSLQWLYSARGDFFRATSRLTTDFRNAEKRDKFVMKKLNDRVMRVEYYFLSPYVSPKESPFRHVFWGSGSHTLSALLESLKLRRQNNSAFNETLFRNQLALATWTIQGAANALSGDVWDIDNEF
Description: as §1, §2

[3] = molecular target: human TrkB (GenBank Acc. No. NP_001018074.1) expressed in CHO cells (CHO-TrkB cells) (human, UniProt Q16620 32-822); experiment: cell-based or functional assay
Chain of human TrkB (GenBank Acc. No. NP_001018074.1) expressed in CHO cells (CHO-TrkB cells) (Q16620 32-822): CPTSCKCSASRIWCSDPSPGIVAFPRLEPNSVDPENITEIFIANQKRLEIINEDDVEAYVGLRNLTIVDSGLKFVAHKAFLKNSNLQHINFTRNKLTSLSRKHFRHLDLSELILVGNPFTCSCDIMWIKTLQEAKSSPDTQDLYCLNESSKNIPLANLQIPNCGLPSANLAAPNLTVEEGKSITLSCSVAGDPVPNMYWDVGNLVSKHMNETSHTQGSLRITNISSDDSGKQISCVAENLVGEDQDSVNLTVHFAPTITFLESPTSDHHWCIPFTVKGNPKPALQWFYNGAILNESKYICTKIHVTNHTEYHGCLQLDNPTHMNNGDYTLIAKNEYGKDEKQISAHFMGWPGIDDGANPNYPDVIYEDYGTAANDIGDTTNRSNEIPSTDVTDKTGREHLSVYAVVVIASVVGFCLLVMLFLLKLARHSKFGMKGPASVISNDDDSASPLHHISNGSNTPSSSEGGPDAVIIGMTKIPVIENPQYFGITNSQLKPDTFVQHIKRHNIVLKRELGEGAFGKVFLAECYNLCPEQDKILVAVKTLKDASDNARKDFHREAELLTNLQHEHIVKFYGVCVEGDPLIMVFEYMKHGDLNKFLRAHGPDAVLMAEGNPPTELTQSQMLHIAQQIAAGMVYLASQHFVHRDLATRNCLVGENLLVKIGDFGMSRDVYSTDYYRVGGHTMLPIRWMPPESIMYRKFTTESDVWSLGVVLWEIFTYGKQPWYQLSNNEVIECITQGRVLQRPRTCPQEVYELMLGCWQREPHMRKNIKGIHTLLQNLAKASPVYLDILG

[4] = molecular target: TrkB receptor on rat primary cultured neurons (corpus striatum of rat embryo) (rat, UniProt Q63604 32-821); experiment: cell-based or functional assay
Chain of TrkB receptor on rat primary cultured neurons (corpus striatum of rat embryo) (Q63604 32-821): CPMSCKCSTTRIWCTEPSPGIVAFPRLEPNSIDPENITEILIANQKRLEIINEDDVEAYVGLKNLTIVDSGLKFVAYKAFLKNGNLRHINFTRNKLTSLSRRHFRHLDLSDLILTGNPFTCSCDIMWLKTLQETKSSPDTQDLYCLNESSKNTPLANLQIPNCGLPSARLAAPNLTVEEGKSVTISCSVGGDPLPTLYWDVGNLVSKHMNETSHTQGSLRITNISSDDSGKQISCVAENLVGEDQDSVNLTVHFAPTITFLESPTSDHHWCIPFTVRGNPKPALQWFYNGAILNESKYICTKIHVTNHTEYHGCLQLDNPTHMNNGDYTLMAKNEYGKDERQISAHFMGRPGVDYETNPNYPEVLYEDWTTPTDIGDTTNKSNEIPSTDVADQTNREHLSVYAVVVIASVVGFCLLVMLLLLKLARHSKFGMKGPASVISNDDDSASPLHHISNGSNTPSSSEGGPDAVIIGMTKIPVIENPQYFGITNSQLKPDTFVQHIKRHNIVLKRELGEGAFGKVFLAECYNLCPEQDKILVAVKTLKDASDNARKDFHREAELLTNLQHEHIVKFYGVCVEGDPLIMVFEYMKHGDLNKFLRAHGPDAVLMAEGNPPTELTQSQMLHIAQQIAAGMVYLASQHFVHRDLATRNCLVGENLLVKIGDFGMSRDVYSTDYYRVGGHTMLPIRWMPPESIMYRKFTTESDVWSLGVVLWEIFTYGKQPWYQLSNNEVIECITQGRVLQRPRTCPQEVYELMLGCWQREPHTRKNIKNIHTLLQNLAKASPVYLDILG

[5] = molecular target: T1, recombinant human TfR (r human TfR, …); experiment: BLI (OctetRED96); fusion protein captured via biotin-labeled anti-human BDNF antibody on SA biosensor, TfR in solution; remark: listed apart in the source
Description: (§3) Affinities of a hBDNF-anti-hTfR antibody (3N) ABD to human TfR, monkey TfR, and human serum albumin (HSA) were measured on OctetRED96 (ForteBio Corporation, a division of Pall Corporation) which is a system for biomolecular interaction analysis utilizing biolayer interferometry (BLI), as same as Example 25. The measurement was generally performed by operation manual attached to the OctetRED96.
(§4) The biotin-labeled rabbit anti-human BDNF polyclonal antibodies (anti-human BDNF antibody: PeproTech Corporation) was diluted with HBS-P+(1% BSA) (10 mM HEPES containing 150 mM NaCl, 50 μM EDTA, 0.05% Surfactant P20, and 1% BSA) to prepare 25 μg/mL of solution, and the solution was designated as ligand solution 1. A purified product of an hBDNF-anti-hTfR antibody (3N) ABD was diluted with HBS-P+, and the solution was designated as ligand solution 2. r human TfR and r monkey TfR were respectively two-fold serial diluted with HBS-P+ to prepare seven-different concentration of 0.78125 to 50 nM (0.0585 to 3.74 μg/mL). These TfR solution were designated as a TfR sample solution. The r human TfR and the r monkey TfR, those described in Example 7 were used. And, human serum albumin preparation (HSA) (blood donation albumin 25-Nichiyaku, Nihon Pharmaceutical Co., Ltd.) was two-fold serial diluted with HBS-P+ to prepare solution of seven-different concentration of 3.13 to 200 nM (0.208 to 13.3 μg/mL). The HSA solution were designated as an HSA sample solution.
(§5) The OctetRED96 was run under the condition shown in the following Table 15-3 described in Example 25 to immobilize the anti-human BDNF antibody onto the sensor. Subsequently, after the OctetRED96 was run under the condition shown in Table 16-2 to obtain data, binding interaction curve was fitted to a 1:1 binding model using the analysis software attached to the OctetRED96, the association rate constant (kon) and the dissociation rate constant (koff) of the hBDNF-anti-hTfR antibody (3N) ABD, to r human TfR, r monkey TfR, and HSA were measured, and a dissociation constant (KD) were calculated. The measurement was performed at 25° C. to 30° C.

[6] = molecular target: T2, recombinant monkey TfR (r monkey TfR, …); experiment: as above
Description: as §3, §4, §5

[7] = molecular target: T3, human serum albumin preparation (HSA) (blood donation albumin 25-Nichiyaku, Nihon Pharmaceutical Co., Ltd.) (human, UniProt P02768 25-609); experiment: BLI (OctetRED96); fusion protein captured via biotin-labeled anti-human BDNF antibody on SA biosensor, HSA in solution
T3 construct: mature
T3 sequence (P02768 25-609): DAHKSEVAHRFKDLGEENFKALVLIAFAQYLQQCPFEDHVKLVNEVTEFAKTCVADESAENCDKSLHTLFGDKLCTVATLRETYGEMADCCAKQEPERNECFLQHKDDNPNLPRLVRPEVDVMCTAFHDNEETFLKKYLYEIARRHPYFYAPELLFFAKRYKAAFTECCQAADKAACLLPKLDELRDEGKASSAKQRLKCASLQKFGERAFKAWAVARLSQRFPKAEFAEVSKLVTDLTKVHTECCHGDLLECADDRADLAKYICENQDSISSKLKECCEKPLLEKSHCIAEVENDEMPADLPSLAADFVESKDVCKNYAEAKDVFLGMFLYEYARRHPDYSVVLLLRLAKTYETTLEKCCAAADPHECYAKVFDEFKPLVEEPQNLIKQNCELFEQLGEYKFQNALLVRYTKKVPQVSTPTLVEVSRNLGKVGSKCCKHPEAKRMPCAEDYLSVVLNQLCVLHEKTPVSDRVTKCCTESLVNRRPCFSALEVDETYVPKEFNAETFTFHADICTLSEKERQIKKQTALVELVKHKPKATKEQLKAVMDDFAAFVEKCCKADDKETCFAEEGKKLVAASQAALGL
Description: as §3, §4
as §5, with “The measurement was performed at 25° C. to 30° C.” left out

[8] = molecular target: T2, recombinant monkey TfR (r monkey TfR, …); experiment: BLI (OctetRED96)

B1: hBDNF-anti-hTfR antibody (3) 1 (other)
heavy: HSDPARRGELSVCDSISEWVTAADKKTAVDMSGGTVTVLEKVPVSKGQLKQYFYETKCNPMGYTKEGCRGIDKRHWNSQCRTTQSYVRALTMDSKKRIGWRFIRIDTSCVCTLTIKRGRGSGGGGSGGGGSGGGGSGGGGSGGGGSEVQLVQSGAEVKKPGESLKISCKGSGYSFTNYWLGWVRQMPGKGLEWMGDIYPGGDYPTYSEKFKVQVTISADKSISTAYLQWSSLKASDTAMYYCARSGNYDEVAYWGQGTLVTVSSASTKGPSVFPLAPSSKSTSGGTAALGCLVKDYFPEPVTVSWNSGALTSGVHTFPAVLQSSGLYSLSSVVTVPSSSLGTQTYICNVNHKPSNTKVDKKVEPKSCDKTHT
light: DIVMTQTPLSLSVTPGQPASISCRSSQSLVHSNGNTYLHWYLQKPGQSPQLLIYKVSNRFSGVPDRFSGSGSGTDFTLKISRVEAEDVGVYYCSQSTHVPWTFGQGTKVEIKRTVAAPSVFIFPPSDEQLKSGTASVVCLLNNFYPREAKVQWKVDNALQSGNSQESVTEQDSKDSTYSLSSTLTLSKADYEKHKVYACEVTHQGLSSPVTKSFNRGEC
[1]
  Kd: 0.251 nM
[2]
  Kd: 39.4 nM
[3]
  BDNF activity (TrkB agonistic: EC50, nmol/L): 0.16 nmol/L

B2: hBDNF-anti-hTfR antibody (3N) 1 (other)
heavy: HSDPARRGELSVCDSISEWVTAADKKTAVDMSGGTVTVLEKVPVSKGQLKQYFYETKCNPMGYTKEGCRGIDKRHWNSQCRTTQSYVRALTMDSKKRIGWRFIRIDTSCVCTLTIKRGRGGGGSGGGGSGGGGSGGGGSGGGGSEVQLVQSGAEVKKPGESLKISCKGSGYSFMNYWLGWVRQMPGKGLEWMGDIYPGGDYPTYSEKFKVQVTISADKSISTAYLQLSSLKASDTAMYYCARSGNYDEVAYWGQGTLVTVSSASTKGPSVFPLAPSSKSTSGGTAALGCLVKDYFPEPVTVSWNSGALTSGVHTFPAVLQSSGLYSLSSVVTVPSSSLGTQTYICNVNHKPSNTKVDKKVEPKSCDKTHT
light: DIVMTQTPLSLSVTPGQPASISCRSSQSLVHSNGNTYLHWYLQKPGQSPQLLIYKVSNRFSGVPDRFSGSGSGTDFTLKISRVEAEDVGVYYCSQSTHVPWTFGQGTKVEIKRTVAAPSVFIFPPSDEQLKSGTASVVCLLNNFYPREAKVQWKVDNALQSGNSQESVTEQDSKDSTYSLSSTLTLSKADYEKHKVYACEVTHQGLSSPVTKSFNRGEC
notes: copies set to 2 on that ground; also called anti-hTfR antibody fusion BDNF; hBDNF-humanized anti-hTfR antibody fusion protein
[1]
  Kd: 0.00742 nM
  koff: 3.54e-06 s⁻¹
  kon: 477000 M⁻¹ s⁻¹
[2]
  Kd: 0.794 nM
  koff: 0.000196 s⁻¹
  kon: 245000 M⁻¹ s⁻¹
[4]
  Erk phosphorylation activity (EC50, nmol/L): 0.02 nmol/L
[3]
  BDNF activity (TrkB agonistic: EC50, nmol/L): 0.43 nmol/L

B3: hBDNF-anti-hTfR antibody (3N) ABD (other)
heavy: HSDPARRGELSVCDSISEWVTAADKKTAVDMSGGTVTVLEKVPVSKGQLKQYFYETKCNPMGYTKEGCRGIDKRHWNSQCRTTQSYVRALTMDSKKRIGWRFIRIDTSCVCTLTIKRGRGGGGSGGGGSGGGGSGGGGSGGGGSEVQLVQSGAEVKKPGESLKISCKGSGYSFMNYWLGWVRQMPGKGLEWMGDIYPGGDYPTYSEKFKVQVTISADKSISTAYLQLSSLKASDTAMYYCARSGNYDEVAYWGQGTLVTVSSASTKGPSVFPLAPSSKSTSGGTAALGCLVKDYFPEPVTVSWNSGALTSGVHTFPAVLQSSGLYSLSSVVTVPSSSLGTQTYICNVNHKPSNTKVDKKVGGGGSGGGGSGGGGSLAEAKVLALRELDKYGVSDYYKDLIDKAKTVEGVKALIDEILAALP
light: DIVMTQTPLSLSVTPGQPASISCRSSQSLVHSNGNTYLHWYLQKPGQSPQLLIYKVSNRFSGVPDRFSGSGSGTDFTLKISRVEAEDVGVYYCSQSTHVPWTFGQGTKVEIKRTVAAPSVFIFPPSDEQLKSGTASVVCLLNNFYPREAKVQWKVDNALQSGNSQESVTEQDSKDSTYSLSSTLTLSKADYEKHKVYACEVTHQGLSSPVTKSFNRGEC
notes: BDNF-Fab-ABD fusion
[4]
  Erk phosphorylation activity (EC50, nmol/L): 0.02 nmol/L
[5]
  Kd: 0.0566 nM
  koff: 4e-05 s⁻¹
  kon: 707000 M⁻¹ s⁻¹
[6]
  Kd: 0.626 nM
  koff: 0.000145 s⁻¹
  kon: 231000 M⁻¹ s⁻¹
[3]
  BDNF activity (TrkB agonistic: EC50, nmol/L): 0.3 nmol/L
[7]
  Kd: 13.5 nM
  koff: 0.000829 s⁻¹
  kon: 61300 M⁻¹ s⁻¹

B4: humanized anti-hTfR antibody No. 3N (antibody, human IgG1, kappa, V domains shown)
VH: EVQLVQSGAEVKKPGESLKISCKGSGYSFMNYWLGWVRQMPGKGLEWMGDIYPGGDYPTYSEKFKVQVTISADKSISTAYLQLSSLKASDTAMYYCARSGNYDEVAYWGQGTLVTVSS
VL: DIVMTQTPLSLSVTPGQPASISCRSSQSLVHSNGNTYLHWYLQKPGQSPQLLIYKVSNRFSGVPDRFSGSGSGTDFTLKISRVEAEDVGVYYCSQSTHVPWTFGQGTKVEIKR
notes: IgG1; Same light chain as humanized No. 3; also called Humanized anti-hTfR antibody 3N
[8]
  KD relative to that of the humanized anti-hTfR antibody No. 3: ~0.033 fold
  affinity relative to that of the humanized anti-hTfR antibody No. 3: ~30 fold
